In patent US6033882A, “Chiral synthesis of 2-hydroxy carboxylic acids with a dehydrogenase” (Genzyme Corporation, priority 1994, dated 2000):
Positions count from the first letter of the chain named. Like-named read-outs stand apart in the source and are kept apart here.

Assays:
[1] = target: T1, Lactobacillus delbrueckii ssp. Bulgaricus R-2-hydroxy acid dehydrogenase (LB2HADH), wild type (H206), SEQ ID NO:1 (Lactobacillus delbrueckii, UniProt Q48534); test: Steady-state kinetics of 2-keto acid reduction, followed by NADH oxidation; type: biochemical
T1 construct: no tag mentioned
T1 sequence (Q48534 1-333): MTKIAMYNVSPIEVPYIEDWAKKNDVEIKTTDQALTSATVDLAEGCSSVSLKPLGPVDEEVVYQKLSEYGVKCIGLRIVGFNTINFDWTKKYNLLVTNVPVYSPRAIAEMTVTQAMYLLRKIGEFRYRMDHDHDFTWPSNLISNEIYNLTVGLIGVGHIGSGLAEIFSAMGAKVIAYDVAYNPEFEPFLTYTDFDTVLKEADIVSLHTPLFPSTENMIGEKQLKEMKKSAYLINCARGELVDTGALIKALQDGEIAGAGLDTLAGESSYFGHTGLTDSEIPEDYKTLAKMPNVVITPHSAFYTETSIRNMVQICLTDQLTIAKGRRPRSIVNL
Source text: Since 1950, a number of workers have investigated the reduction of 2-oxo carboxylic acids catalysed by R-hydroxy acid dehydrogenases. For these studies, enzymes isolated from a variety of bacte rial sources have bee n employed. For a given 2-oxo acid, a given enzyme activity may be examined by UV spectroscopy and quantified with the Michaelis constant, Km, and the catalytic turnover, kcat.
The two compartment model for the binding pocket of the enzyme is illustrated in accompanying FIG. 1.
The substrate specificity of the purified enzyme was established by following the kinetics of reduction of a variety of 2-ketoacids (see Table 2 above).
(The steady-state kinetic constants of LB2HADH and H206Q in Table 6 below were obtained using standard stopped flow measurements.)

[2] = target: T2, Lactobacillus delbrueckii ssp. Bulgaricus R-2-hydroxy acid dehydrogenase (LB2HADH) variant H206Q (Q206 mutant, Histidine 206 replaced by glutamine) (Lactobacillus delbrueckii, UniProt Q48534, H207Q); test: as above; type: biochemical
T2 construct: no tag mentioned
T2 sequence (Q48534 1-333 H207Q): T1 sequence (Q48534 1-333) with H207Q
Description: Glutamine 206 variant of LB2HADH:
A site-directed mutant was prepared from pGIN113 (Bernard, N., et al, Eur. J. Biochem., (1994), 224, 439-446) using a mutagenic oligonucleotide:
and the Promega "altered sites mutagenesis" kit. The enzyme was purified as for the wild type.
The vQ206 /vwt was 45 at 70 mM substrate.
The results are illustrated in accompanying FIG. 2, the Vmax values for H206Q being divided by 10 to obtain a clearer representation of comparative performance. […] (The steady-state kinetic constants of LB2HADH and H206Q in Table 6 below were obtained using standard stopped flow measurements.)

[3] = substrate: CCCC(=O)C(=O)O; test: purified protein, by the assay type; type: biochemical, Lactobacillus delbrueckii ssp. Bulgaricus; conditions: other: pH 7.5; [NADH] = 0.2 mM; pH 7.5
[4] = substrate: O=C(O)C(=O)CCC1CCCC1; test: purified protein, by the assay type; type: biochemical, Lactobacillus delbrueckii ssp. Bulgaricus
[5] = substrate: O=C(O)C(=O)CCc1ccccc1; test: purified protein, by the assay type; type: biochemical, Lactobacillus delbrueckii ssp. Bulgaricus; conditions: other: pH 7.5; [NADH] = 0.2 mM; pH 7.5
[6] = substrate: CCC(=O)C(=O)O; test: purified protein, by the assay type; type: biochemical, Lactobacillus delbrueckii ssp. Bulgaricus; conditions: other: pH 7.5; [NADH] = 0.2 mM; pH 7.5
[7] = substrate: CC(C)CC(=O)C(=O)O; test: purified protein, by the assay type; type: biochemical, Lactobacillus delbrueckii ssp. Bulgaricus
[8] = substrate: CCCCC(=O)C(=O)O; test: purified protein, by the assay type; type: biochemical, Lactobacillus delbrueckii ssp. Bulgaricus; conditions: other: pH 7.5; [NADH] = 0.2 mM; pH 7.5
[9] = substrate: CC(C)C(=O)C(=O)O; test: purified protein, by the assay type; type: biochemical, Lactobacillus delbrueckii ssp. Bulgaricus; conditions: other: pH 7.5; [NADH] = 0.2 mM; pH 7.5
[10] = substrate: CC(=O)C(=O)O; test: purified protein, by the assay type; type: biochemical, Lactobacillus delbrueckii ssp. Bulgaricus; conditions: other: pH 7.5; [NADH] = 0.2 mM; pH 7.5
[11] = substrate: NC(=O)C1=CN([C@@H]2O[C@H](COP(=O)(O)OP(=O)(O)OC[C@H]3O[C@@H](n4cnc5c(N)ncnc54)[C@H](O)[C@@H]3O)[C@@H](O)[C@H]2O)C=CC1; test: purified protein, by the assay type; conditions: other: pH 5.5, stopped flow
[12] = other: pH 7.5, [NADH] = 0.2 mM, pH 7.5
[13] = other: pH 5.0, stopped flow, pH 5.0
[14] = other: pH 5.5, stopped flow, pH 5.5
[15] = other: pH 6.0, stopped flow, pH 6.0
[16] = other: pH 6.5, stopped flow, pH 6.5

**Q.** Which “Vm (VM (app): turnover at optimal substrate concentration)” value ([1]; pH 7.5, [NADH] = 0.2 mM) does the source give for `O=C(O)C(=O)CCc1ccccc1` [benzylpyruvate, 2-oxo-4-phenyl butanoate] here?
**A.** Its value is 51 s⁻¹.

**Q.** How did the Ki ([1]; substrate inhibition, wild type, read-out: Ki (substrate)) turn out when `O=C(O)C(=O)CCC1CCCC1` [cyclopentylmethyl, 4-cyclopentyl-2-keto-butanoate] was run?
**A.** Its Ki is 2 mM.

**Q.** And the Ki ([2]; read-out: Ki (substrate), substrate inhibition, Q206 mutant)?
**A.** Its Ki is > 100 mM.

**Q.** Which Ki ([1]; pH 5.5, stopped flow, read-out: Ki KIC) does the source give for `CC(C)CC(=O)C(=O)O` [ketoisocaproate, 4-methyl-2-oxo-pentanoic acid] here?
**A.** Its Ki is 0.24 mM.

**Q.** And the Vm/KM ([1]; pH 6)?
**A.** The Vm/KM was 5e+06 M⁻¹ s⁻¹.

**Q.** What about the Ki ([1]; pH 6.0, stopped flow, read-out: Ki KIC) of the same molecule?
**A.** Its Ki is 0.31 mM.

**Q.** And the “Vm (VM (app): turnover at optimal substrate concentration)” value ([1]; pH 7.5, [NADH] = 0.2 mM)?
**A.** The value was 20 s⁻¹.

**Q.** And the Ki ([2]; read-out: Ki KIC, pH 5.0, stopped flow)?
**A.** Its Ki is 3.5 mM.

**Q.** And the Ki ([2]; read-out: Ki KIC, pH 5.5, stopped flow)?
**A.** Its Ki is 8.1 mM.

**Q.** And the Ki ([2]; read-out: Ki KIC, pH 6.0, stopped flow)?
**A.** The Ki was 5.8 mM.

**Q.** And the Ki ([2]; read-out: Ki KIC, pH 6.5, stopped flow)?
**A.** The Ki was 7.6 mM.

**Q.** `O=C(O)C(=O)Cc1ccccc1` [phenylpyruvate] was tested. Which Km ([1]; pH 7.5, [NADH] = 0.2 mM, read-out: Km (KM (app): substrate concentration for 0.5 Vmax)) did it give?
**A.** The Km was 31 µM.

**Q.** With `CC(=O)C(=O)O` [pyruvate] as the molecule, how does the “Vm (VM (app): turnover at optimal substrate concentration)” value ([1]; pH 7.5, [NADH] = 0.2 mM) read?
**A.** The value was 48 s⁻¹.

B1: Lactobacillus delbrueckii ssp. Bulgaricus R-2-hydroxy acid dehydrogenase (LB2HADH), wild type (H206), SEQ ID NO:1 (Lactobacillus delbrueckii) (protein)
chain: T1 sequence (Q48534 1-333)
notes: no tag mentioned
**Q.** B1 was tested. Which Km [3] did it give?
**A.** Its Km is 57 µM.

**Q.** What about the kcat/Km [3] of the same molecule?
**A.** Its kcat/Km is 330000 M⁻¹ s⁻¹.

**Q.** And the Km ([4]; other: 0.2 mM NADH, wild type)?
**A.** The Km was 8 µM.

**Q.** And the kcat ([4]; other: 0.2 mM NADH, wild type)?
**A.** Its kcat is 25 s⁻¹.

**Q.** What about the Km [4, 12] of the same molecule?
**A.** The Km was 10 µM.

**Q.** And the kcat/Km [4, 12]?
**A.** The kcat/Km was 2.8e+06 M⁻¹ s⁻¹.

**Q.** What about the Km [5] of the same molecule?
**A.** The Km was 36 µM.

**Q.** And the kcat/Km [5]?
**A.** Its kcat/Km is 1.4e+06 M⁻¹ s⁻¹.

**Q.** And the Km [6]?
**A.** The Km was 1700 µM.

**Q.** And the kcat/Km [6]?
**A.** Its kcat/Km is 28000 M⁻¹ s⁻¹.

**Q.** What about the Km [7, 13] of the same molecule?
**A.** The Km was 25 µM.

**Q.** And the kcat [7, 13]?
**A.** The kcat was 170 s⁻¹.

**Q.** And the kcat/Km [7, 13]?
**A.** Its kcat/Km is 7e+06 M⁻¹ s⁻¹.

**Q.** What about the Km [7, 14] of the same molecule?
**A.** The Km was 30 µM.

**Q.** And the kcat [7, 14]?
**A.** The kcat was 240 s⁻¹.

**Q.** And the kcat/Km [7, 14]?
**A.** Its kcat/Km is 8e+06 M⁻¹ s⁻¹.

**Q.** What about the Km [7, 15] of the same molecule?
**A.** The Km was 50 µM.

**Q.** What about the kcat [7, 15] of the same molecule?
**A.** The kcat was 245 s⁻¹.

**Q.** What about the kcat/Km [7, 15] of the same molecule?
**A.** The kcat/Km was 5e+06 M⁻¹ s⁻¹.

**Q.** What about the Km [7, 16] of the same molecule?
**A.** The Km was 15 µM.

**Q.** And the kcat [7, 16]?
**A.** Its kcat is 75 s⁻¹.

**Q.** What about the kcat/Km [7, 16] of the same molecule?
**A.** The kcat/Km was 5e+06 M⁻¹ s⁻¹.

**Q.** What about the Km [7, 12] of the same molecule?
**A.** Its Km is 22 µM.

**Q.** What about the kcat/Km [7, 12] of the same molecule?
**A.** Its kcat/Km is 910000 M⁻¹ s⁻¹.

**Q.** What about the Km [8] of the same molecule?
**A.** The Km was 20 µM.

**Q.** And the kcat/Km [8]?
**A.** Its kcat/Km is 650000 M⁻¹ s⁻¹.

**Q.** What about the Km [9] of the same molecule?
**A.** Its Km is 20000 µM.

**Q.** And the Km [10]?
**A.** The Km was 20000 µM.

**Q.** What about the Km [11] of the same molecule?
**A.** The Km was 15 µM.
